Columns and labels:
[1] = target: Schistosoma japonicum GST (GST-Sj), purified recombinant (Schistosoma japonicum) [GST: P08515]; test: SPR
[2] = target: rat GSTM1, purified recombinant (rat); test: SPR; BIAcore; GSTM1 or GSTP1 immobilised by amine coupling on CM5 chips; AMPK 221WT injected (10 nM, or a concentration series) at 30 µl/min; 10 mM HEPES pH 7.4, 100 mM NaCl, 50 μM EDTA, 0.005% Surfactant P20; Langmuir 1:1 fit

Substance: AMPK α2T172Dβ2γ1 mutant (221TD) (from UniProt Q09137 1-552; Q9QZH4 1-271; P80385 1-330) (complex)
- equilibrium response [1]: 121 RU

Substance: AMPK α2β2γ1 (221WT) (from UniProt Q09137 1-552; Q9QZH4 1-271; P80385 1-330) (complex)
- equilibrium response [1]: 203 RU
- Kd [2]: 5 nM
- koff [2]: 0.0016 s⁻¹
- kon [2]: 310000 M⁻¹ s⁻¹

— article PMC3669356
